Results from FireProtDB (doi:10.1021/bi00485a005).

Conditions: Aspergillus oryzae (strain ATCC 42149 / RIB 40), 25 °C, Urea, Fluorescence, NaCl 0.2 M, whole UniProt chain shown

B1: Guanyl-specific ribonuclease T1 wild type, P00651 (protein)
chain: MMYSKLLTLTTLLLPTALALPSLVERACDYTCGSNCYSSSDVSTAQAAGYQLHEDGETVGSNSYPHKYNNYEGFDFSVSSPYYEWPILSSGDVYSGGSPGADRVVFNENNQLAGVITHTGASGNNFVECT
With B1 the denaturant m value (pH 6.02, MES 30 mM) was 1.25 kcal/mol/M, the “denaturant midpoint (higher = more stable)” value (pH 6.02, MES 30 mM) was 6.58 M and the unfolding free energy (pH 6.02, MES 30 mM) was 8.24 kcal/mol. For the same protein, the denaturant m value (pH 8.02, HEPPSO 30 mM) was 1.35 kcal/mol/M, the “denaturant midpoint (higher = more stable)” value (pH 8.02, HEPPSO 30 mM) was 4.38 M and the unfolding free energy (pH 8.02, HEPPSO 30 mM) was 5.92 kcal/mol.
